Assay [1] deals with Stromal interacting molecule 2 (STIM2) (rat (endogenous in primary cortical neurons)). Briefly: proximity ligation; Duolink in situ PLA on fixed 17-day-old rat cortical neurons; rabbit anti-STIM1 or anti-STIM2 with mouse anti-NR2A or anti-NR2B; cells treated 10 min with 2 mM CaCl2 (control) or 2 uM TG in 0.5 mM EGTA; PLA signals per cell counted in ImageJ.
For assay [2], the target named is Stromal interacting molecule 1 (STIM1) (rat (endogenous in primary cortical neurons)) (UniProt P84903). The description is as above.
Chain of Stromal interacting molecule 1 (STIM1) (rat (endogenous in primary cortical neurons)) (P84903 23-685): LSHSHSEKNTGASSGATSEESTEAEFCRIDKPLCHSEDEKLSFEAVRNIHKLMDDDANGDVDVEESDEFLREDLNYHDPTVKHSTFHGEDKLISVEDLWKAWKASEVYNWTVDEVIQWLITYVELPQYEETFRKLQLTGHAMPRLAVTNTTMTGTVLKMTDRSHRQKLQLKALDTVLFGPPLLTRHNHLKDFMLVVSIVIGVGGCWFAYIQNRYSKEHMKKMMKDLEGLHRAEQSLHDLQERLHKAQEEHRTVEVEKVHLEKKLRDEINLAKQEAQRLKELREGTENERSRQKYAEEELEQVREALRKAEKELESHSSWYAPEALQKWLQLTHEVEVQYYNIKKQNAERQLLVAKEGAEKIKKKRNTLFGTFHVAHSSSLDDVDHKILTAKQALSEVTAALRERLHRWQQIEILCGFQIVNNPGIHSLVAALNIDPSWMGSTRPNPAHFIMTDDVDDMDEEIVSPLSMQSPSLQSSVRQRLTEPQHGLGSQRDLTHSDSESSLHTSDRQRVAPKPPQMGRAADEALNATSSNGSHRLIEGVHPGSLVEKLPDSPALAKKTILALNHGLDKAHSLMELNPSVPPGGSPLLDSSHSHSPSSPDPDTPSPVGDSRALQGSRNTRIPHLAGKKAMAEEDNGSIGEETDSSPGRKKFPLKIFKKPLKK

Chain of NMDA receptor subunit NR2A (Q00959 23-1464): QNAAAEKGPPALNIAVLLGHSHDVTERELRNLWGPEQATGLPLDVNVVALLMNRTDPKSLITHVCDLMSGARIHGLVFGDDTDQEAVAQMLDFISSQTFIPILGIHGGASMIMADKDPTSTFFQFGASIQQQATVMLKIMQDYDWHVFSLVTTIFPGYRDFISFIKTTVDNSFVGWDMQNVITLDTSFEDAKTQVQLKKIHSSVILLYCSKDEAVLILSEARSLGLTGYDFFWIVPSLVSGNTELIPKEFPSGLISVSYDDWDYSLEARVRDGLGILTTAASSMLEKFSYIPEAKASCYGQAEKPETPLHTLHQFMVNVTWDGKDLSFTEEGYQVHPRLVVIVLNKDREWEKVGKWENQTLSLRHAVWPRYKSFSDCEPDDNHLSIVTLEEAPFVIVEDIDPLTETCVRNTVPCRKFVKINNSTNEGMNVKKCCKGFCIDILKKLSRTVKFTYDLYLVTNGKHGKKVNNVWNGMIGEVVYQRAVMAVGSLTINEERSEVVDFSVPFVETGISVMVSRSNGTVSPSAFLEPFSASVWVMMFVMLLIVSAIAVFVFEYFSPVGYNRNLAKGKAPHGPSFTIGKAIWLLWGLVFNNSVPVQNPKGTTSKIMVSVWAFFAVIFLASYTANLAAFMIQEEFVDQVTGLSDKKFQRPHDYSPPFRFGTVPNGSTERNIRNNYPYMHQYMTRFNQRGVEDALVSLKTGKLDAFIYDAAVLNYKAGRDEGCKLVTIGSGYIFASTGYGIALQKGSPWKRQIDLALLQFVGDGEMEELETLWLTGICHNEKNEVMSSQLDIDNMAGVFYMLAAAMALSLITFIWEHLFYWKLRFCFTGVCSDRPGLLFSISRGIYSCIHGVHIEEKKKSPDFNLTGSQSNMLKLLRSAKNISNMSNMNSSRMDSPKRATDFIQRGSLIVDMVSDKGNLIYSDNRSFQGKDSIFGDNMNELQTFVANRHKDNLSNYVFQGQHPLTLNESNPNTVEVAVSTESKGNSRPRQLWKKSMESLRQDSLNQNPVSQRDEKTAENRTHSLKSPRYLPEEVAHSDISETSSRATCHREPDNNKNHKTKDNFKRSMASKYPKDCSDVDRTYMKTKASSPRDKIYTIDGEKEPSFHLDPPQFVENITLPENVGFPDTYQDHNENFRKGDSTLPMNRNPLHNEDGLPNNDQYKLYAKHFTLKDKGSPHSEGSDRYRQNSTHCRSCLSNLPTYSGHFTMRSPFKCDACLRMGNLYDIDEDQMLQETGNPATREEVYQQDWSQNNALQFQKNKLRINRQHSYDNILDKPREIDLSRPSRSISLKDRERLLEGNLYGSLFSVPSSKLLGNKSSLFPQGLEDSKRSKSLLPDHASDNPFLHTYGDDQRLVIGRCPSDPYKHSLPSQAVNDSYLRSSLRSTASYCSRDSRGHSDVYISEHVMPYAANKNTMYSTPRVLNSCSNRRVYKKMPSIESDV
Chain of NMDA receptor subunit NR2B, Q00960 27-1482 (receptor; other documents disagree on this pair) (Q00960 27-1482): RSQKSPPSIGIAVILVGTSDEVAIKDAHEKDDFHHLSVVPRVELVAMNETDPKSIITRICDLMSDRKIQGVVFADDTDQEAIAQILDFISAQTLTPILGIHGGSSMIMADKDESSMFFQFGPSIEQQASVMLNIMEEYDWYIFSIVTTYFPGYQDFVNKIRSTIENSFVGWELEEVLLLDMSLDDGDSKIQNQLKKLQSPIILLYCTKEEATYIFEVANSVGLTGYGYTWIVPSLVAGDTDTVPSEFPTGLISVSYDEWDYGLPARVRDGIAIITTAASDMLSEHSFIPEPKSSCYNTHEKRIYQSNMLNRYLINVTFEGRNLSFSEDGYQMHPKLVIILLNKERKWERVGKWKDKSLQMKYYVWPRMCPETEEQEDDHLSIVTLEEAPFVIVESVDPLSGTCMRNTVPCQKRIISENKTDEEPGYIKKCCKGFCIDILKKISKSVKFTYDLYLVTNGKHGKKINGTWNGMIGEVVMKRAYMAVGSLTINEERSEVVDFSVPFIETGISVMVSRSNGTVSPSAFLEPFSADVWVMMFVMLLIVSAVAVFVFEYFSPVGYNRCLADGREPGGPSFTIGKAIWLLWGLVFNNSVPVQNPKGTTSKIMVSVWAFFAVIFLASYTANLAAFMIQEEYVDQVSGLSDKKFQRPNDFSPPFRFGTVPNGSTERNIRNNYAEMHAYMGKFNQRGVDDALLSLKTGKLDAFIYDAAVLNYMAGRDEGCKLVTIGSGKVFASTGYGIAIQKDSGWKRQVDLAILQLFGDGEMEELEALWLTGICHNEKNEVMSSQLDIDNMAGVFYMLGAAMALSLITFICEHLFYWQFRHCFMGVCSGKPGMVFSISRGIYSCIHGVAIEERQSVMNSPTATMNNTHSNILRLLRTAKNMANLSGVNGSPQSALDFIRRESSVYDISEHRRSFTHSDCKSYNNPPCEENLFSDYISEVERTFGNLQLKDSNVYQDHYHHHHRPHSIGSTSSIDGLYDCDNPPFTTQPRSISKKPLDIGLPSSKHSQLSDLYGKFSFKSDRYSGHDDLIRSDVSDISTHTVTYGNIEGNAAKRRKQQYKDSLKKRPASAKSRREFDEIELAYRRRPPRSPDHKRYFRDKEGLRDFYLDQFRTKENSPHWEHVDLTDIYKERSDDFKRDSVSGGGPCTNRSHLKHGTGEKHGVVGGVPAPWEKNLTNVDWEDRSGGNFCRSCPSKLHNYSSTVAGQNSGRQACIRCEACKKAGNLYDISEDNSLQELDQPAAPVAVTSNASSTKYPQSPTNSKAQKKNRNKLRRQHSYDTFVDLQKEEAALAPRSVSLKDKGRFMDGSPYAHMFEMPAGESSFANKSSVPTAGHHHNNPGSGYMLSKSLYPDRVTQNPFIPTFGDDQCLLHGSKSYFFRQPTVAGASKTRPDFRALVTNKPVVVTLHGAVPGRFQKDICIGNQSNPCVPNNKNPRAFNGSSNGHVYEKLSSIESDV

Regarding “NMDA receptor subunit NR2A (from UniProt Q00959 23-1464)”, the PLA complexes per cell (complexes per cell) in assay [1] is 3.78.
“NMDA receptor subunit NR2B, Q00960 27-1482 (receptor; other documents disagree on this pair)”: the PLA complexes per cell (complexes per cell) in assay [2] stood at 57.2.

(Values after PMC7017226.)
